For data set [1], the system named is CCCCCCCCCCCCCC(=O)OC[C@H](COP(=O)(O)OCCN)OC(=O)CCCCCCCCCCCCC
Briefly: purified protein. Particulars: Ca2+ acyl donor; phospholipase A1-type, a1-position acyl chain transferred to CG.

In data set [2] the test system is CC(C)CCC[C@@H](C)[C@H]1CC[C@H]2[C@@H]3CC=C4C[C@@H](O[C@H]5O[C@H](CO)[C@@H](O)[C@H](O)[C@H]5O)CC[C@]4(C)[C@H]3CC[C@]12C. The experiment in a line: purified protein. To be noted: Ca2+ acyl acceptor; sequential rapid-equilibrium random bi-bi mechanism.

The values that follow come from publication PMC7069968, “Cholesteryl α-D-glucoside 6-acyltransferase enhances the adhesion of Helicobacter pylori to gastric epithelium” (Communications Biology, 2020).

On to “cholesteryl α-D-glucopyranoside 6′-acyltransferase (CGAT) (Helicobacter pylori 26695)”, for which the figures for the Km in data set [1] and in data set [2] were 290 µM and 26.0 µM, respectively.
